The results in this text go back to publication PMC2789240, “Comparative structural, kinetic and inhibitor studies of Trypanosoma brucei trypanothione reductase with T. cruzi^☆” (Molecular and Biochemical Parasitology, 2010).

This data set concerns the molecule itself. The data set is described as follows: SEC; 600 ug TbTryR on Superdex 200 10/300, 25 mM HEPES pH 7.5, 100 mM NaCl; mass from BioRad gel filtration standards; data not shown. Background: Size exclusion chromatography separates by hydrodynamic size, large species first.

B1: Trypanosoma brucei brucei trypanothione reductase (enzyme, T. b. brucei, UniProt P39051 1-492, looked up)
chain: MSKIFDLVVIGAGSGGLEAGWNAATLYKKRVAVIDVQTHHGPPHYAALGGTCVNVGCVPKKLMVTGAQYMDHLRESAGFGWEFDGSSVKANWKKLIAAKNEAVLDINKSYEGMFNDTEGLDFFLGWGSLESKNVVVVRETADPKSAVKERLQADHILLATGSWPQMPAIPGVEHCISSNEAFYLPEPPRRVLTVGGGFISVEFAGIFNAYKPPGGKVTLCYRNNLILRGFDETIREEVTKQLTANGIEIMTNENPAKVSLNTDGSKHVTFESGKTLDVDVVMMAIGRIPRTNDLQLGNVGVKLTPKGGVQVDEFSRTNVPNIYAIGDITDRLMLTPVAINEGAALVDTVFGNKPRKTDHTRVASAVFSIPPIGTCGLIEEVAAKEFEKVAVYMSSFTPLMHNISGSKYKKFVAKIVTNHSDGTVLGVHLLGDGAPEIIQAVGVCLRLNAKISDFYNTIGVHPTSAEELCSMRTPSYYYLKGEKMETLPESSL
notes: Trypanothione reductase, T. b. brucei strain S427 (MITat 1.4); complete open reading frame amplified from start to stop codon; identical at the amino acid level to genome strain 927 (GeneDB Tb10.406.0520) and to T. b. gambiense TryR; calculated subunit mass 53,156 Da; Flavoprotein: each subunit carries 1 FAD (and 1 NADPH in the crystal); In the crystal model the first residue and the last 2 …
The term stoichiometry N denotes the number of molecules, sites or subunits per partner or assembly. As to B1, the “stoichiometry N” value is 2.
